Experimental findings from paper PMC9892617, “Small-angle x-ray and neutron scattering of MexR and its complex with DNA supports a conformational selection binding model” (Biophysical Journal, 2022) are described below.

Data set [1] deals with the molecule itself. Description: SEC-MALS; Superdex 75 Increase 5/150, 20 mM HEPES pH 7.1, 150 mM NaCl, 10 mM DTT, 1% v/v glycerol, 0.3 mL/min, 20°C; MALLS with RI detection. For orientation: SEC sorts molecules by how far they enter the pores of the column.
Data set [2] addresses T1, MexR (Pseudomonas aeruginosa, UniProt P52003 5-139).
T1 sequence: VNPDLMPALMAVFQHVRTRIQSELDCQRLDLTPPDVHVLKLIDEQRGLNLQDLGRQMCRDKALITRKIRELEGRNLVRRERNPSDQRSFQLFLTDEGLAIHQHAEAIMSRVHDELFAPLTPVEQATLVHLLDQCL
Nature of the data set: ITC; one MexR dimer per duplex; 20 C; ITC: 20 mM sodium phosphate pH 7.1, 150 mM NaCl, 5 mM beta-mercaptoethanol, 20 C; complex sample buffer: 20 mM sodium phosphate pH 7.1, 150 mM NaCl, 10 mM DTT. The following applies: protein: recombinant; tags: 6xHis-thioredoxin tag removed with TEV; chain copies: 2; blunt.

B1: MexR (Val5-Leu139) (domain or fragment)
chain: VNPDLMPALMAVFQHVRTRIQSELDCQRLDLTPPDVHVLKLIDEQRGLNLQDLGRQMCRDKALITRKIRELEGRNLVRRERNPSDQRSFQLFLTDEGLAIHQHAEAIMSRVHDELFAPLTPVEQATLVHLLDQCL
notes: MexR, transcriptional repressor of the MarR family, Pseudomonas aeruginosa, UniProt P52003, residues Val5-Leu139; Homodimer in solution; also called apo-MexR; hMexR; source: E. coli BL21 Rosetta 2(DE3), purified (Ni-NTA IMAC, TEV cleavage, reverse IMAC, Superdex 75)
On to B1, for which the stoichiometry N – broadly, a count of units in the complex or per binding partner – in data set [1] is 2.

B2: PII DNA (dsDNA)
DNA 1: CTTATTTTAGTTGACCTTATCAACCTTGTTTCAG
DNA 2: CTGAAACAAGGTTGATAAGGTCAACTAAAATAAG
For the molecule B2, in data set [2], the Kd (as a rule, a measure of binding affinity in units of concentration) was found to be 240 nM.
